# Measured values reported in paper doi:10.1101/2025.06.28.661730.
# Target: complement receptor 2 (CR2, CD21) on human follicular dendritic cells (human (endogenous in tonsil FDCs)) (UniProt P20023)
# Sequence (P20023 21-1033): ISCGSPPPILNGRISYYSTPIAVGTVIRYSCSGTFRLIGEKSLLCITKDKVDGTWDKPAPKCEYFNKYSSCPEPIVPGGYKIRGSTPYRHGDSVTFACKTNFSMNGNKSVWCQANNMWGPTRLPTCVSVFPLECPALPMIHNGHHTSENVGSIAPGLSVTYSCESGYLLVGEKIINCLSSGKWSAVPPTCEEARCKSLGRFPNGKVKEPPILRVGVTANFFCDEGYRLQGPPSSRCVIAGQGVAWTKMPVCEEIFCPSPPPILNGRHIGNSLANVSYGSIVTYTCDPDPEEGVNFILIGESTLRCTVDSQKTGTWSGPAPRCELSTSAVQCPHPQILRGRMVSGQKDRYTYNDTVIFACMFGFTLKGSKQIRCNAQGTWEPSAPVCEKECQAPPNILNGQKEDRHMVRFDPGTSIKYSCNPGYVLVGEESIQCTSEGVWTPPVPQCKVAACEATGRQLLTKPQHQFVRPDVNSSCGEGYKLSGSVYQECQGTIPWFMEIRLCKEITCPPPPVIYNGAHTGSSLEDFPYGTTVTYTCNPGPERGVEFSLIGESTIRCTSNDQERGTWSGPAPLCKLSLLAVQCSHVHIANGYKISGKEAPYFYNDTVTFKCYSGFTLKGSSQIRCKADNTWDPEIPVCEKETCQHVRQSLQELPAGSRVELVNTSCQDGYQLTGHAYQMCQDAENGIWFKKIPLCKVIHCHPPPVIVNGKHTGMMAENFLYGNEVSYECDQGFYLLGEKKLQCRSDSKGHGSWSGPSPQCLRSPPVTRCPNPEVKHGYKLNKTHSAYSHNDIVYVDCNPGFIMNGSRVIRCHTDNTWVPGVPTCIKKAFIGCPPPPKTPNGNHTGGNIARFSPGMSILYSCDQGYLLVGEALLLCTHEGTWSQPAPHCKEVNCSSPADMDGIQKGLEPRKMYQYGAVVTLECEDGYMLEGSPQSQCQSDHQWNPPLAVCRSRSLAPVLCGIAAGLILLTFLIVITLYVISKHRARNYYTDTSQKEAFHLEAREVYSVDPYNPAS
substance,measurement,value
ConM SOSIP.v7 Env trimer fused to human complement fragment C3d (from UniProt P01024 1002-1303),"Ca2+ flux of PGT121-expressing Ramos B cells, AUC at 0.01 µg/ml Env-equivalent (tested at 10, 1, 0.1, 0.01 and 0.001 µg/ml); ConM Env alone gave AUC 5",442 AUC
